Consider ten molecules from US20200317768A1 (published 2020).

Substitutions are numbered along the chain they refer to. In names and notes the source's numbering stands.

What all share (test): SPR 25C; FcgR bound per captured antibody, relative to parent B3
The target in assay [1] is T1, human FcγRIIb extracellular domain, C-terminal His-tag (human, UniProt P31994 43-217).
T1 construct: also called FcgRIIb (human)
T1 sequence: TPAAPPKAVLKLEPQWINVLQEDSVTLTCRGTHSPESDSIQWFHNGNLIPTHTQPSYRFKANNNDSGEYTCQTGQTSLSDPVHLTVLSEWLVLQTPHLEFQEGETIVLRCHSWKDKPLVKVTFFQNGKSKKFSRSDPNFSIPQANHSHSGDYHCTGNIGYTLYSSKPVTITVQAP
As to the method:
(§1) These Fc variants are referred to as B3 variants. B3 variants were expressed and the binding of protein-A purified antibodies to each FcγR (FcγRIIa type H. FcγRIIa type R, FcγRIIb, and FcγRIIIaF) was comprehensively evaluated as follows. Analysis of interaction between each altered antibody and the Fcγ receptor prepared as mentioned above was carried out using BIACORE® T100 (GE Healthcare), BIACORE® T200 (GE Healthcare), BIACORE® A100, or BIACORE® 4000. HBS-EP+(GE Healthcare) was used as the running buffer, and the measurement temperature was set to 25° C. Chips produced by immobilizing Protein A (Thermo Scientific), Protein A/G (Thermo Scientific), or Protein L (ACTIGEN or BioVision) by the amine coupling method to a Series S sensor Chip CM5 or CM4 (GE Healthcare) were used. After capturing of antibodies of interest onto these sensor chips, an Fcγ receptor diluted with the running buffer was allowed to interact, the amount bound to an antibody was measured. However, since the amount of Fcγ receptor bound depends on the amount of the captured antibodies, the amount of Fcγ receptor bound was divided by the amount of each antibody captured to obtain corrected values, and these values were compared. Furthermore, antibodies captured onto the chips were washed by 10 mM glycine-HCl pH1.5, and the chips were regenerated and used repeatedly. […] The value obtained by multiplying this value by 100 was used as an indicator of the relative FcγR-binding activity of each variant.

In assay [2] the target is T2, human FcγRIIaR extracellular domain, C-terminal His-tag (human, UniProt P12318 34-217).
T2 construct: also called human FcγRIIa (type R); FcgRIIaR
T2 chain: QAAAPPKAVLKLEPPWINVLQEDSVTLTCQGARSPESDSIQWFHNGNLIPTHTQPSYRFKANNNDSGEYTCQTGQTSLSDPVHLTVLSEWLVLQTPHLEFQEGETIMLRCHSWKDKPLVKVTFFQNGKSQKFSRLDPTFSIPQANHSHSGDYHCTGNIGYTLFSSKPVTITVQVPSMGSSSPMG
How it is done:
as §1

Assay [3] deals with T3, human FcγRIIaH extracellular domain, C-terminal His-tag (human, UniProt P12318 34-217).
T3 construct: also called human FcγRIIa (type H); FcgRIIaH
T3 sequence: T2 chain with R134H
How it is done: as §1

B1: GpH7-B3 variant P271G/GpL16-k0 (antibody, human IgG1, kappa)
heavy: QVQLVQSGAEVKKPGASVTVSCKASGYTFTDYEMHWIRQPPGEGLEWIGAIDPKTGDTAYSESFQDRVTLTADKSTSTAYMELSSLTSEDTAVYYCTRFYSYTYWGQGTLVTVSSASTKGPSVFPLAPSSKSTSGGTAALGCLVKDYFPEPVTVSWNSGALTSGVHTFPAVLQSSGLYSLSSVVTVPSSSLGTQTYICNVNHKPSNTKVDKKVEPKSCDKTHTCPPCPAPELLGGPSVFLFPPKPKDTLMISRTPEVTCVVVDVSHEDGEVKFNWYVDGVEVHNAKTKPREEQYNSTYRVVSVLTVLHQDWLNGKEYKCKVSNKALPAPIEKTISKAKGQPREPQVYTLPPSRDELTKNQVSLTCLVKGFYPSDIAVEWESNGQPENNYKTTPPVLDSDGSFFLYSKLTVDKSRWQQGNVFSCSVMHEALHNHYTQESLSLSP
light: DIVMTQSPLSLPVTPGEPASISCQASESLVHSNRNTYLHWYLQKPGQSPQLLIYKVSNRFSGVPDRFSGSGSGTDFTLKISRVEAEDVGVYYCSQNTHVPPTFGQGTKVEIERTVAAPSVFIFPPSDEQLKSGTASVVCLLNNFYPREAKVQWKVDNALQSGNSQESVTEQDSKDSTYSLSSTLTLSKADYEKHKVYACEVTHQGLSSPVTKSFNRGEC
As to B1, the “Binding to human FcgRs (parent B3 = 100)” value came to 252 parent B3 = 100 in assay [1], 130 parent B3 = 100 in assay [2] and 152 parent B3 = 100 in assay [3].

B2: GpH7-B3 variant S267H/GpL16-k0 (antibody, human IgG1, kappa)
heavy: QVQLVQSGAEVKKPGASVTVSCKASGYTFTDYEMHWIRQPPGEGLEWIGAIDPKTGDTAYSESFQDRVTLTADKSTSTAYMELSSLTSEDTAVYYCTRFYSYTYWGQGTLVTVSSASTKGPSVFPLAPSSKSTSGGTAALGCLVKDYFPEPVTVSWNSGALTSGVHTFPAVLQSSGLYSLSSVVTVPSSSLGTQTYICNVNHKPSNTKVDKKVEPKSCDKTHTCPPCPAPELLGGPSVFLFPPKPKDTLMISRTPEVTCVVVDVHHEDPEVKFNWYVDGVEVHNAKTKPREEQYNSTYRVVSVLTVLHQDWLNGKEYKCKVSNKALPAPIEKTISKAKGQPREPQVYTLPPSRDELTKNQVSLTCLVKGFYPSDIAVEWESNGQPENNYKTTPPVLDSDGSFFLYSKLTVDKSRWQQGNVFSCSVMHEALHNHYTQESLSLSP
light: B1 light
For the molecule B2, the “Binding to human FcgRs (parent B3 = 100)” value in assay [1] amounted to 42 parent B3 = 100; in assay [2], 3 parent B3 = 100; in assay [3], 27 parent B3 = 100.

B3: GpH7-B3 variant S239V/GpL16-k0 (antibody, human IgG1, kappa)
heavy: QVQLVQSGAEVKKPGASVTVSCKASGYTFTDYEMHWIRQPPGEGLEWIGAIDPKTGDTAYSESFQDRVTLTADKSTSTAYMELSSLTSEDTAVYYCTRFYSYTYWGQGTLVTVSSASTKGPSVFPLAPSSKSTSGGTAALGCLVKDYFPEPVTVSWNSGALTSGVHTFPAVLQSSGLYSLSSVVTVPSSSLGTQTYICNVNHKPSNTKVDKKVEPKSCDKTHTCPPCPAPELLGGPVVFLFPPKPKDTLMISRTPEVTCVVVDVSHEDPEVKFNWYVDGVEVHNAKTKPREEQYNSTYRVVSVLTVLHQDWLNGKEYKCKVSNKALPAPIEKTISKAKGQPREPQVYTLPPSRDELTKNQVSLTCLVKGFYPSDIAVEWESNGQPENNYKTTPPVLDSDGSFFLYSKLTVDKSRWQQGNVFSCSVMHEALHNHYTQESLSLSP
light: B1 light
Consider B3, for which the “Binding to human FcgRs (parent B3 = 100)” value was 107 parent B3 = 100 in assay [1], 71 parent B3 = 100 in assay [2] and 79 parent B3 = 100 in assay [3].

B4: GpH7-B3 variant S239N/GpL16-k0 (antibody, human IgG1, kappa)
heavy: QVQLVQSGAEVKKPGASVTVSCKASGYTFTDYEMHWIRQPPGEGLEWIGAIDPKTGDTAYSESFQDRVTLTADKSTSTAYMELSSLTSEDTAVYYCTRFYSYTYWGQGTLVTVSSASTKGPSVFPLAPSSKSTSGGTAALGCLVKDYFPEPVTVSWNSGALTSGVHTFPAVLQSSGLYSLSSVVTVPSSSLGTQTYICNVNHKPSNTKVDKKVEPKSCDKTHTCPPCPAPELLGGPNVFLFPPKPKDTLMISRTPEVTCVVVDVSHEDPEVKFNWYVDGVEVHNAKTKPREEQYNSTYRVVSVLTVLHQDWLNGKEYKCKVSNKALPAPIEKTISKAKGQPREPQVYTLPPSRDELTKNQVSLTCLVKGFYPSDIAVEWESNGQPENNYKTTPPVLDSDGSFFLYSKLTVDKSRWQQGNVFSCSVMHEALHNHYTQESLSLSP
light: B1 light
In the case of B4, the “Binding to human FcgRs (parent B3 = 100)” value in assay [1] came out at 124 parent B3 = 100; in assay [2], 80 parent B3 = 100; in assay [3], 99 parent B3 = 100.

B5: GpH7-B3 variant Q295L/GpL16-k0 (antibody, human IgG1, kappa)
heavy: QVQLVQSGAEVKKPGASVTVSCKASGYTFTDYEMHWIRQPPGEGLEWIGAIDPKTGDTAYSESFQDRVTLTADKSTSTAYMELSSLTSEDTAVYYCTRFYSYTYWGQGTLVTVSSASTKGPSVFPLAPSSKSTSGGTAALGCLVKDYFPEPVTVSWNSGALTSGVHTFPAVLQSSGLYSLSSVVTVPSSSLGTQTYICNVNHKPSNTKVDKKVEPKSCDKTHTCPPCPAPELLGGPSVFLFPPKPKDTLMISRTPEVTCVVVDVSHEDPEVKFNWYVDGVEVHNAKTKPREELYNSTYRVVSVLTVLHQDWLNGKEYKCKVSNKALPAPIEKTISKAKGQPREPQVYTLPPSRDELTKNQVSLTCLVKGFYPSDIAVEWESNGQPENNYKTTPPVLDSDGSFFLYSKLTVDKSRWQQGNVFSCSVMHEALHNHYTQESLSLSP
light: B1 light
In the case of B5, the “Binding to human FcgRs (parent B3 = 100)” value in assay [1] was 156 parent B3 = 100; in assay [2], 148 parent B3 = 100; in assay [3], 128 parent B3 = 100.

B6: GpH7-B3 variant S298L/GpL16-k0 (antibody, human IgG1, kappa)
heavy: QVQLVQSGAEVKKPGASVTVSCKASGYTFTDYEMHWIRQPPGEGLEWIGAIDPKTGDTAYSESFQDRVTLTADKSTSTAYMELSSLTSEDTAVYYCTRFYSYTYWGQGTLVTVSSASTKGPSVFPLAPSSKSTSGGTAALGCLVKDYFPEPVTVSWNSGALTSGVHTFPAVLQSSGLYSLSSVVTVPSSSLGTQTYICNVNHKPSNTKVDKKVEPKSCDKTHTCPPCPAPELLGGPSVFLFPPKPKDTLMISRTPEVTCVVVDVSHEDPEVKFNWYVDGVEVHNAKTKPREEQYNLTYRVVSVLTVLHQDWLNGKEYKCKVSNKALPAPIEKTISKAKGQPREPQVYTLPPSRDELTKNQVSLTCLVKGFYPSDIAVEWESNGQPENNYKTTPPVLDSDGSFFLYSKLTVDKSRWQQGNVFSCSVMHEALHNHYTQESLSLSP
light: B1 light
As for B6, the “Binding to human FcgRs (parent B3 = 100)” value was 114 parent B3 = 100 in assay [1], 71 parent B3 = 100 in assay [2] and 99 parent B3 = 100 in assay [3].

B7: GpH7-B3 variant S267A/GpL16-k0 (antibody, human IgG1, kappa)
heavy: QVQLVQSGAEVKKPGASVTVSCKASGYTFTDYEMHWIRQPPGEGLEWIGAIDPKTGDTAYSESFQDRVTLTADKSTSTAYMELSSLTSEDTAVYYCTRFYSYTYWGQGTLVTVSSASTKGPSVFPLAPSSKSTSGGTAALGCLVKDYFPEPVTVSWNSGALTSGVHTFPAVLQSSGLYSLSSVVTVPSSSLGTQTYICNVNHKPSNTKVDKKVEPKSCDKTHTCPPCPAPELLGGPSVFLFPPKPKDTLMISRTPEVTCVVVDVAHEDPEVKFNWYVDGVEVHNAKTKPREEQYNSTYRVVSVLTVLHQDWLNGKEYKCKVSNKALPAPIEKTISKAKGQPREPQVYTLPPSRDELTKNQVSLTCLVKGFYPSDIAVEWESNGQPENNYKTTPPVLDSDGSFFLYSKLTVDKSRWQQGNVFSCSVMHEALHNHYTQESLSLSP
light: B1 light
B7: the “Binding to human FcgRs (parent B3 = 100)” value in assay [1] was found to be 283 parent B3 = 100; in assay [2] it was 125 parent B3 = 100; in assay [3], 176 parent B3 = 100.

B8: GpH7-B3 variant S267L/GpL16-k0 (antibody, human IgG1, kappa)
heavy: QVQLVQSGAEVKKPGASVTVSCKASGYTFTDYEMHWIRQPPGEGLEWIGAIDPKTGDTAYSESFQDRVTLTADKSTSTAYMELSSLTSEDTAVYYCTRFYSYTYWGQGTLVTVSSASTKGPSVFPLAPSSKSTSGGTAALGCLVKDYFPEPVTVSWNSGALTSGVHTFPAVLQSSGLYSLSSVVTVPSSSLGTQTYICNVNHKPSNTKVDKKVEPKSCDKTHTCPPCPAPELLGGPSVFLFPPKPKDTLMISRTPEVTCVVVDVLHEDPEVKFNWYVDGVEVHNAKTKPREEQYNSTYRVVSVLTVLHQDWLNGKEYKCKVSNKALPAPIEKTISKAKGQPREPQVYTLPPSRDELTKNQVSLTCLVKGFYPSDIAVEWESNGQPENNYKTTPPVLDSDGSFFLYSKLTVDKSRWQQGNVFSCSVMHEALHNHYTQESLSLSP
light: B1 light
B8: the “Binding to human FcgRs (parent B3 = 100)” value is 112 parent B3 = 100 in assay [1], 3 parent B3 = 100 in assay [2] and 63 parent B3 = 100 in assay [3].

B9: GpH7-B3 variant P331E/GpL16-k0 (antibody, human IgG1, kappa)
heavy: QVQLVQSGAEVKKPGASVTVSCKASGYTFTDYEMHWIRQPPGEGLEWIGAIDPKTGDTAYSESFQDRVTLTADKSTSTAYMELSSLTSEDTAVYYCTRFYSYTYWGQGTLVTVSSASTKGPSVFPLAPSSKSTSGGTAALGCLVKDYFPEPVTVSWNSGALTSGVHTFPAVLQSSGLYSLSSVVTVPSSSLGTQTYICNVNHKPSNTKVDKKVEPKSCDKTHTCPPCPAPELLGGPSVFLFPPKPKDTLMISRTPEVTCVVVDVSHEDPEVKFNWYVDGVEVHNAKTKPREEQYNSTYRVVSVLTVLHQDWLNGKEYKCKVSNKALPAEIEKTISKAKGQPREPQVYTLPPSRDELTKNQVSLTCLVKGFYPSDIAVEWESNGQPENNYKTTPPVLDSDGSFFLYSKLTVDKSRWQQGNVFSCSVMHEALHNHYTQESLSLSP
light: B1 light
Take B9: the figures for the “Binding to human FcgRs (parent B3 = 100)” value in assay [1], in assay [2] and in assay [3] were 100 parent B3 = 100, 67 parent B3 = 100 and 96 parent B3 = 100, respectively.

B10: GpH7-B3 variant S239I/GpL16-k0 (antibody, human IgG1, kappa)
heavy: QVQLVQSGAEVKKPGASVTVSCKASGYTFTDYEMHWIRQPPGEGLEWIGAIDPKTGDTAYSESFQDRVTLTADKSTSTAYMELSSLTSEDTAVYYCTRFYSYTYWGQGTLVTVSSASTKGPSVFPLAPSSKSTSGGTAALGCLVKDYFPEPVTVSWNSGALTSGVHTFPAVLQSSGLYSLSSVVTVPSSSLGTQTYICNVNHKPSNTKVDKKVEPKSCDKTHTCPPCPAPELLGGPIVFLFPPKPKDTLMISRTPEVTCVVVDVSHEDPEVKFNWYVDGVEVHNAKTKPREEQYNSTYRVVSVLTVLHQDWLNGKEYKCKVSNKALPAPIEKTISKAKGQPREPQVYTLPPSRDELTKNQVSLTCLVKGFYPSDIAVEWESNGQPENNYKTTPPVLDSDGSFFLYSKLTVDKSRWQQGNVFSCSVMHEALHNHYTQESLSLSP
light: B1 light
B10: the “Binding to human FcgRs (parent B3 = 100)” value was 108 parent B3 = 100 in assay [1], 75 parent B3 = 100 in assay [2] and 82 parent B3 = 100 in assay [3].
